From PMC3398536

Key:
Experiment in all cases: native gel or EMSA
[1] = target: AcK-pro-PanD variant with acetyl-lysine at position 9 (S. enterica)
[2] = target: AcK-pro-PanD variant with acetyl-lysine at position 14 (S. enterica)
[3] = target: AcK-pro-PanD variant with acetyl-lysine at position 53 (S. enterica)
[4] = target: AcK-pro-PanD variant with acetyl-lysine at position 104 (S. enterica)
[5] = target: AcK-pro-PanD variant with acetyl-lysine at position 115 (S. enterica)
[6] = target: AcK-pro-PanD variant with acetyl-lysine at position 119 (S. enterica)
[7] = target: pro-PanD (wild type), made from a plasmid in S. enterica ΔpanM (S. enterica)

AcK-pro-PanD variant with acetyl-lysine at position 9 (natural protein)
stoichiometry N [1]: 4

AcK-pro-PanD variant with acetyl-lysine at position 14 (natural protein)
stoichiometry N [2]: 4

AcK-pro-PanD variant with acetyl-lysine at position 53 (natural protein)
stoichiometry N [3]: 4

AcK-pro-PanD variant with acetyl-lysine at position 104 (natural protein)
stoichiometry N [4]: 4

AcK-pro-PanD variant with acetyl-lysine at position 115 (natural protein)
stoichiometry N [5]: 4

AcK-pro-PanD variant with acetyl-lysine at position 119 (natural protein)
stoichiometry N [6]: 4

pro-PanD (wild type), made from a plasmid in S. enterica ΔpanM (natural protein)
stoichiometry N [7]: 4
